Measured values from the supplement of paper PMC11316812.
± gives the standard deviation of the averaged measurements.

Legend:
MCF7 = assay: percentage of EdU-negative (G0-arrested) nuclei per well, 72 h; higher = more G0 arrest; settings: reference: sequence is the full UniProt precursor, the tested protein was the secreted form or ectodomain
hTERT-HMEC = assay: as above; settings: reference: sequence is the full UniProt precursor, the tested protein was the secreted form or ectodomain
[1] = protein concentration 0.0225 µM
[2] = protein concentration 0.03125 µM
[3] = protein concentration 0.3125 µM
[4] = protein concentration 0.0237143 µM
[5] = protein concentration 0.237143 µM
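Also: secreted proteins added to cultured cells, EdU pulse at the end, nuclei found by Hoechst imaging, EdU status from nuclear versus surrounding ring intensity ratio, PBS as neutral control.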

Row | Sequence | percentage of EdU-negative (MCF7; [1]) [%] | percentage of EdU-negative (MCF7; protein concentration 0.225 µM) [%] | percentage of EdU-negative (hTERT-HMEC; [1]) [%] | percentage of EdU-negative (hTERT-HMEC; protein concentration 0.225 µM) [%] | also measured
1 | MGTKAQVERKLLCLFILAILLCSLALGSVTVHSSEPEVRIPENNPVKLSCAYSGFSSPRVEWKFDQGDTTRLVCYNNKITASYEDRVTFLPTGITFKSVTREDTGTYTCMVSEEGGNSYGEVKVKLIVLVPPSKPTVNIPSSATIGNRAVLTCSEQDGSPPSEYTWFKDGIVMPTNPKSTRAFSNSSYVLNPTTGELVFDPLSASDTGEYSCEARNGYGTPMTSNAVRMEAVERNVGVIVAAVLVTLILLGILVFGIWFAYSRGHFDRTKKGTSSKKVIYSQPSARSEGEFKQTSSFLV [Q9Y624] | 24.4 ± 0.49 | 25.6 ± 5.5 | 4.79 ± 0.22 | 5.1 ± 1.2 | 
2 | MSLSFLLLLFFSHLILSAWAHGEKRLAPKGQPGPAATDRNPRGSSSRQSSSSAMSSSSASSSPAASLGSQGSGLEQSSFQWSPSGRRTGSLYCRVGIGFHLQIYPDGKVNGSHEANMLSVLEIFAVSQGIVGIRGVFSNKFLAMSKKGKLHASAKFTDDCKFRERFQENSYNTYASAIHRTEKTGREWYVALNKRGKAKRGCSPRVKPQHISTHFLPRFKQSEQPELSFTVTVPEKKKPPSPIKPKIPLSAPRKNTNSVKYRLKFRFG |  |  |  |  | percentage of EdU-negative (MCF7; [2]): 27.9 ± 2.3%; percentage of EdU-negative (MCF7; [3]): 28 ± 0.77%; percentage of EdU-negative (hTERT-HMEC; [2]): 4.71 ± 0.44%; percentage of EdU-negative (hTERT-HMEC; [3]): 5.28 ± 0.53%
3 | MVWRVPPFLLPILFLASHVGAAVDLTLLANLRLTDPQRFFLTCVSGEAGAGRGSDAWGPPLLLEKDDRIVRTPPGPPLRLARNGSHQVTLRGFSKPSDLVGVFSCVGGAGARRTRVIYVHNSPGAHLLPDKVTHTVNKGDTAVLSARVHKEKQTDVIWKSNGSYFYTLDWHEAQDGRFLLQLPNVQPPSSGIYSATYLEASPLGSAFFRLIVRGCGAGRWGPGCTKECPGCLHGGVCHDHDGECVCPPGFTGTRCEQACREGRFGQSCQEQCPGISGCRGLTFCLPDPYGCSCGSGWRGSQCQEACAPGHFGADCRLQCQCQNGGTCDRFSGCVCPSGWHGVHCEKSDRIPQILNMASELEFNLETMPRINCAAAGNPFPVRGSIELRKPDGTVLLSTKAIVEPEKTTAEFEVPRLVLADSGFWECRVSTSGGQDSRRFKVNVKVPPVPLAAPRLLTKQSRQLVVSPLVSFSGDGPISTVRLHYRPQDSTMDWSTIVVDPSENVTLMNLRPKTGYSVRVQLSRPGEGGEGAWGPPTLMTTDCPEPLLQPWLEGWHVEGTDRLRVSWSLPLVPGPLVGDGFLLRLWDGTRGQERRENVSSPQARTALLTGLTPGTHYQLDVQLYHCTLLGPASPPAHVLLPPSGPPAPRHLHAQALSDSEIQLTWKHPEALPGPISKYVVEVQVAGGAGDPLWIDVDRPEETSTIIRGLNASTRYLFRMRASIQGLGDWSNTVEESTLGNGLQAEGPVQESRAAEEGLDQQLILAVVGSVSATCLTILAALLTLVCIRRSCLHRRRTFTYQSGSGEETILQFSSGTLTLTRRPKLQPEPLSYPVLEWEDITFEDLIGEGNFGQVIRAMIKKDGLKMNAAIKMLKEYASENDHRDFAGELEVLCKLGHHPNIINLLGACKNRGYLYIAIEYAPYGNLLDFLRKSRVLETDPAFAREHGTASTLSSRQLLRFASDAANGMQYLSEKQFIHRDLAARNVLVGENLASKIADFGLSRGEEVYVKKTMGRLPVRWMAIESLNYSVYTTKSDVWSFGVLLWEIVSLGGTPYCGMTCAELYEKLPQGYRMEQPRNCDDEVYELMRQCWRDRPYERPPFAQIALQLGRMLEARKAYVNMSLFENFTYAGIDATAEEA |  |  |  |  | percentage of EdU-negative (MCF7; [4]): 23.1 ± 1.1%; percentage of EdU-negative (MCF7; [5]): 26.39 ± 0.034%; percentage of EdU-negative (hTERT-HMEC; [4]): 5.57 ± 1.2%; percentage of EdU-negative (hTERT-HMEC; [5]): 5.36 ± 0.036%
4 | MAEGNTLISVDYEIFGKVQGVFFRKHTQAEGKKLGLVGWVQNTDRGTVQGQLQGPISKVRHMQEWLETRGSPKSHIDKANFNNEKVILKLDYSDFQIVK [G3V2U7] | 24.4 ± 1.6 | 25.9 ± 3.2 | 4.35 ± 0.4 | 5.31 ± 0.75 | 
5 | MRWCLLLIWAQGLRQAPLASGMMTGTIETTGNISAEKGGSIILQCHLSSTTAQVTQVNWEQQDQLLAICNADLGWHISPSFKDRVAPGPGLGLTLQSLTVNDTGEYFCIYHTYPDGTYTGRIFLEVLESSVAEHGARFQIPLLGAMAATLVVICTAVIVVVALTRKKKALRIHSVEGDLRRKSAGQEEWSPSAPSPPGSCVQAEAAPAGLCGEQRGEDCAELHDYFNVLSYRSLGNCSFFTETG [Q495A1] | 23.6 ± 1.6 | 24.1 ± 1.1 | 4.33 ± 0.49 | 5.59 ± 0.47 | 
